Experimental data reported in article PMC11139964, “L-serine deficiency: on the properties of the Asn133Ser variant of human phosphoserine phosphatase” (Scientific Reports, 2024).

T1: human phosphoserine phosphatase (PSP) (Homo sapiens, UniProt P78330)
T1 construct: gene PSPH; EC 3.1.3.3
T1 sequence (P78330 1-225): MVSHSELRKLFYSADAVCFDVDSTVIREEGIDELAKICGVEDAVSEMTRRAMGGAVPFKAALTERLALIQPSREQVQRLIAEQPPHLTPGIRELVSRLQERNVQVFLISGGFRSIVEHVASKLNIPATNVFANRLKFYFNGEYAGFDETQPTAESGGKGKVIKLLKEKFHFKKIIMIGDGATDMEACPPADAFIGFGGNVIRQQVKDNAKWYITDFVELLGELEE

T2: human phosphoserine phosphatase (PSP) (Homo sapiens, UniProt P78330, N133S)
T2 construct: gene PSPH; EC 3.1.3.3
T2 sequence (P78330 1-225 N133S): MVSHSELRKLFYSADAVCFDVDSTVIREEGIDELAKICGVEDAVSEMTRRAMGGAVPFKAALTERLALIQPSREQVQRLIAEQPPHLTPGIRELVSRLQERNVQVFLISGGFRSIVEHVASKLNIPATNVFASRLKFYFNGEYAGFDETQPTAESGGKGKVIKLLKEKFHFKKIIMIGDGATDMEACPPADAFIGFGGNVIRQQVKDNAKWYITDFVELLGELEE

B1: human phosphoserine phosphatase (PSP), wild-type (enzyme)
chain: SHSELRKLFYSADAVCFDVDSTVIREEGIDELAKICGVEDAVSEMTRRAMGGAVPFKAALTERLALIQPSREQVQRLIAEQPPHLTPGIRELVSRLQERNVQVFLISGGFRSIVEHVASKLNIPATNVFANRLKFYFNGEYAGFDETQPTAESGGKGKVIKLLKEKFHFKKIIMIGDGATDMEACPPADAFIGFGGNVIRQQVKDNAKWYITDFVELLGELEE
notes: phosphoserine phosphatase (PSP), human, EC 3.1.3.3; gene cloned in the NdeI/BamHI sites of pET28a; also called wt PSP; wild-type PSP; source: E. coli BL21(DE3), purified (published procedure)
B2: Asn133Ser variant of human phosphoserine phosphatase (PSP) (enzyme)
chain: SHSELRKLFYSADAVCFDVDSTVIREEGIDELAKICGVEDAVSEMTRRAMGGAVPFKAALTERLALIQPSREQVQRLIAEQPPHLTPGIRELVSRLQERNVQVFLISGGFRSIVEHVASKLNIPATNVFASRLKFYFNGEYAGFDETQPTAESGGKGKVIKLLKEKFHFKKIIMIGDGATDMEACPPADAFIGFGGNVIRQQVKDNAKWYITDFVELLGELEE
notes: phosphoserine phosphatase (PSP), human, EC 3.1.3.3, with the patients' missense variant c.398A > G p.(Asn133Ser); mutated pET28a plasmid prepared by GenScript; Natural variant found in patients and in gnomAD; Same construct as m1 apart from the substitution; also called Asn133Ser PSP; N133S PSP; source: E. coli BL21(DE3), purified (> 90% purity, published procedure)
B3: human phosphoserine phosphatase (PSP) (Homo sapiens) (protein)
chain: MVSHSELRKLFYSADAVCFDVDSTVIREEGIDELAKICGVEDAVSEMTRRAMGGAVPFKAALTERLALIQPSREQVQRLIAEQPPHLTPGIRELVSRLQERNVQVFLISGGFRSIVEHVASKLNIPATNVFANRLKFYFNGEYAGFDETQPTAESGGKGKVIKLLKEKFHFKKIIMIGDGATDMEACPPADAFIGFGGNVIRQQVKDNAKWYITDFVELLGELEE
notes: EC 3.1.3.3
B4: human phosphoserine phosphatase (PSP) (Homo sapiens; N133S) (protein)
chain: MVSHSELRKLFYSADAVCFDVDSTVIREEGIDELAKICGVEDAVSEMTRRAMGGAVPFKAALTERLALIQPSREQVQRLIAEQPPHLTPGIRELVSRLQERNVQVFLISGGFRSIVEHVASKLNIPATNVFASRLKFYFNGEYAGFDETQPTAESGGKGKVIKLLKEKFHFKKIIMIGDGATDMEACPPADAFIGFGGNVIRQQVKDNAKWYITDFVELLGELEE
notes: EC 3.1.3.3

Assays:
[1] = molecular target: T1, human phosphoserine phosphatase (PSP); assay: PNP-coupled phosphate release assay (MESG, […] nm); type: biochemical; settings: read-out: wild-type
[2] = molecular target: T2, human phosphoserine phosphatase (PSP); assay: PNP-coupled phosphate release assay (MESG, […] nm); type: biochemical; settings: read-out: Asn133Ser
[3] = molecular target: the molecule itself; assay: SEC; Superdex 75 Increase 5/150 GL, 50 mM HEPES pH 7.0, 100 mM KCl, room temperature, protein loaded at 10 uM; apparent mass from a calibration curve; monomer-dimer
purified protein = substrate: N[C@@H](COP(=O)(O)O)C(=O)O; assay: purified protein; type: biochemical, Homo sapiens; settings: 50 mM HEPES, 100 mM KCl, 3 mM MgCl2, pH 7.0, 37 °C, 170 μM acetyl-CoA in coupling system

Row | Molecule | stoichiometry N [3] | Km (purified protein) [µM] | kcat (purified protein) [s⁻¹] | kcat/Km (purified protein) [M⁻¹ s⁻¹] | other results
1 | N[C@@H](CO)C(=O)O [L-serine] |  |  |  |  | IC50 [1]: 290 ± 20 µM; IC50 [2]: 250 ± 25 µM
2 | B1 | 2 |  |  |  | 
3 | B2 | 2 |  |  |  | 
4 | B3 |  | 42 ± 13 | 38 ± 3 | 900000 | 
5 | B4 |  | 31 ± 5 | 28 ± 1 | 900000 | 
